# B1: human ALDH2 with C-terminal hemagglutinin (HA) tag, expressed from the AAVrh.10hALDH2 vector (enzyme)
# chain: SAAATQAVPAPNQQPEVFCNQIFINNEWHDAVSRKTFPTVNPSTGEVICQVAEGDKEDVDKAVKAARAAFQLGSPWRRMDASHRGRLLNRLADLIERDRTYLAALETLDNGKPYVISYLVDLDMVLKCLRYYAGWADKYHGKTIPIDGDFFSYTRHEPVGVCGQIIPWNFPLLMQAWKLGPALATGNVVVMKVAEQTPLTALYVANLIKEAGFPPGVVNIVPGFGPTAGAAIASHEDVDKVAFTGSTEIGRVIQVAAGSSNLKRVTLELGGKSPNIIMSDADMDWAVEQAHFALFFNQGQCCCAGSRTFVQEDIYDEFVERSVARAKSRVVGNPFDSKTEQGPQVDETQFKKILGYINTGKQEGAKLLCGGGIAADRGYFIQPTVFGDVQDGMTIAKEEIFGPVMQILKFKTIEEVVGRANNSTYGLAAAVFTKDLDKANYLSQALQAGTVWVNCYDVFGAQSPFGGYKMSGSGRELGEYGLQAYTEVKTVTVKVPQKNS
# notes: also called human aldehyde dehydrogenase 2; hALDH2-HA; not shown: C-terminal hemagglutinin (HA) tag
# Target: the molecule itself
# Test: Western blot, HEK 293T-orf6 cells (self-association into a homotetramer)
# Method: To assess ALDH2 tetramer formation from AAVrh.10hALDH2 directed expression of the human ALDH2 protein in vitro, HEK 293T cells were infected with the AAVrh.10hALDH2 vector or a control AAVrh.10-hα1 AT vector, and supernatant was harvested 72 hours later. Human ALDH2 tetramer formation in supernatant was evaluated by SDS-PAGE and Western analysis with an anti-HA antibody.
protein,measurement,value
B1,binding result,binds

# Source: patent US20190160187A1 (CORNELL UNIVERSITY, published 2019)
